Test results from article PMC11098746 (2024).

B1: 82 (protein)
chain: GLCKPCTLENHYCEGGLESDITFNNKLIKGKFHTLPKKCPRGLGIPNIIKERNSINNCLCIHGKVQRTTENKNVECFPCPPNTFKENEYDNSCSGACPPFSTTFVGSSYENQCFCKNNYYLVSTDDENDANGNSINNNKNIYNNNNIYNNNNNNNNNNNNNFNNKADVKKKSCKICPIGAICNRGFNIYIYLKLLNDRSYNNINVIDHETPFPKYGYYAVYREKTNPAKSWDTLDDSAILNYVYPYHKLLLFIQKNIQKGNYFFLEKGNKFFLNDDFVEKMNEKSKYEEENANKFVTKSEIIHNVNTNNLKGKHNTLNNNNNNNNINKASSFLNQNNYNNDIIQLSSYENNPFKNLASTSEVSSNNNVISFIQNNDKTNNAANDNNIENLVDIFNKYVQEAKELQIQNRKFERIPDIHPCTIPNRCLGTLINLCSDGSTGYQCNNCAKNYDMSYFKSKCKKCQNLFYE
modifications: bait human Fc-tagged dimer
B2: 81 (protein)
chain: EFVKGSYESKGYPLIHLMNNNEYTGSANNFIKNNLINLLYIYKDVKFDEEKTLGIDSFLDIEDDTKIERLIKEKMLYINKYINSRQMIKYSGFIYLYEIIEKKNFYFLLHFLMTNNNNGLIIILPEDMYINVDEYYRINKINKLNDQNKKNKVVSQDLLEKRIMFVQSLILNMKLQQSIYFIKNNKDIEKIYENYQSKFAYFDLTRNVAISPISKIQNVYKMNSKSLYYFLNKNNNIHINTIFNKQQDNQAFLLTKQKTIIICADFNVFNIFSDLPSNTAFTNSNLITIQNLIKLFYDVYNKEQVNYNILFFFTNYYYGIQDFLNSINVIFKENIEFVICLDNLNNADFYIYESNKAQPQNVQAFYRILNNIVKGSIKKNVQMVNEKIKIHSKHLPSLHEYFVLNKINSFSLSSSKKNNNMIFLNKFPMLQPKLNIQNVKNNIAIIFKSLYLYMTQKKTDQKENTQQEQSIEKNEKEKSMLTYINKNMASNDDMNTIDYNLNKYNKFFIYKEDTLKLFNYFKTIINSNIADTNFLIKDYKLTTDKKQKFFYQKYAHVTFSMAISYVFH
modifications: bait human Fc-tagged dimer
B3: 39 (protein)
chain: GTIEIKLSEFVGDSVNLAAKLHGFFLELNVNIAFTVICSNGMKALNGICIPCPLGSYNNINEYIKNNNIYECTLCHNNAATKNEGSTSISQCLCLPGYELNNNDLCVPCKRGTWKTKLSNSPCIFHCYPNSYSLVQGSRSEEESKCKCKRGFYFVSKDSINFCDNCNIGYFCPGGYKIGEKKCPKNTANIAQNNFAISSCKCDVGFEPFDSSNLNAYNFKNDPIFNDYKDFLDDVKSSQICVPCKEGFYKNTVSEEKCKRCSDNVYTDGLQSTSISNCKKCEKGYYLQSEDSCIICPDNHYCPGAYINDPKYAIYENQKIPCGDKSLTIPPNNLNVAHLNCLCKKGFEFIKTDDNEFDCLEVPKNYYKSHLGNKEKEPCPENSVTLYTQTKSKVKCLCMPGYYWDLKEFKCIKCPKGHYCPGGYLKNCFNNQNLHSCKPQKKKCPLKNSATQTKESFSQSSCLCDKGYTINKEELRECIPCPINTYKDVISNAECTKCLTPYTTDGQIGSTKEEDCTCSGGFFFLNHCLPCSDKNTYCKGGKMIVNNKNKAIHYGPSKCPPNTAVSFETERPYNKGFCVCQKGFKHVYTTSDFTKICAPCERGFFKTIIGDFSCESKCKPNSASFVGTIHETHCFCLENYYFKNGICLNCPDGAYCEGGFQKETLLYMKKNEYYLDTSKIKHIMPVPKENYALYKLKTNIYNTDWFIVECPIKEACLYNEKCHESMTNFLCGECKKGYTNNFAKLNLCIKCSGHIMN
modifications: bait human Fc-tagged dimer
B4: 14 (protein)
chain: KNINLNDEGKKKQSGIINENEDGKNNKANNNKKVQHNKINRKGNNAVTKKTDEHKNDGDAENKKNGEHKNDGDGKNKKNGEHKNDGDGKNKKMDEHLYDIDGENKKNGEHLYDVDGENKKNGEHLYDIDGENKKNGEHLYDIDGENKKTDEHLYDVDGGKNNILEYNNIDQHNEFPESLENDNSYDKLFDDVELRDIIHNEKFFENLKNVNNNDVHNFLLVDKEMERRKEEEKKKSRKLEEDEEDDEDEEEDNDEKWKEENKNNAASSSSSSSNNFNKNYDIYDNRDLYNYDNLVDITQEEHINVPNINDEINEGRKHDKEDFLIFEKRLNEAEDRNDASDGDNKMEDLINNHFDDSGDNGAYENIQVKKELYNKNEKIIKGRDNNLNDGDIHMNKNNAANKLNNNNNNNNNDNNMNSEMKYKTFKEEYEEQILSKP
modifications: bait human Fc-tagged dimer
B5: 73 (protein)
chain: NNIKLNDKENINFESYFNKRTNEENVLNKNVAKEMGDTFVAHKAIELNINHHHVNNDKEFNNNNNNKHQPYYHNEHDKKFSESLKAHMDHLKILNNDLKQHIDKKERNEIYENNDLKKYIIKEIQNNKYLNKEKKSSEDIQILEEHSKKLQKEIHEWLESVNNIEEKSNILKNIKSQLLNNIASLNHALSEEIKNINDIKELQKQQNDLFSENWLYFLPSSSDYLLNEKKKNLYDNQDNSMKDDINNNDKYNIFNYLQNVQDKDNQYEVMKQDNNNIHSGSS
modifications: bait human Fc-tagged dimer
B6: 64 (protein)
chain: RMNVVSHNSMKKVGEEGKDEKIISCVVEYVIKGDLSIDDGDFCDSNSICSNNPGLCDNGQVVVPGDYCSNYYDITLVVEESSFVQKDYWLKGTIPFLESMVFNSNVAKDKAHMSVVLFAGKQRVVVPFTDESSQDKNMLLEKINSIDEGIATSSDTLYVNALKYAIENVIFGDGTRKDAPKVAVLFYYGFDYGANKNMIPDVVQTYKEQNVKLIIVGIALGIRDNAYLLADCSIGDENCVNVVFKPWDFVIPAAADVNQKICDKNKA
modifications: bait human Fc-tagged dimer
B7: 11 (protein)
chain: LKVPIENAPFVFNKKENDIKYFLDKETPDDFLSNNAYSLDITLENFPNPFFHPSLCNRYGFKFSYICDPNKILSRNIADQIEEILNYQRRNSKHFCVDKEVPYVLGVALINKLPYGISADTFASQIFEYWKLSNKDCNDGVLLFFVKEDTHFILKWKKGAQSIINFRTATSMNKAFNQYLRKYSLEYSILSAVKLTSQYLTEEIIPPTQTAQK
modifications: bait human Fc-tagged dimer
B8: 29 (protein)
chain: QNYWEHPYQNSDVYRPINEHREHPKEYEYPLHQEHTYQQEDSGEDENTLQHAYPIDHEGAEPAPQEQNLFSSIEIVERSNYMGNPWTEYMAKYDIEEVHGSGIRVDLGEDAEVAGTQYRLPSGKCPVFGKGIIIENSNTAFLTPVATGNQYLKDGGFAFPPTEPLMSPMTLDEMRHFYKDNKYVKNLDELTLCSRHAGNMIPDNDKNSNYKYPAVYDDKDKKCHILYIAAQENNGPRYCNKDESKRNSMFCFRPAKDISFQNYAYLSKNVVDNWEKVCPRKNLQNAKFGLWVDGNCEDIPHVNEFPAIDLFECNKLVFELSASDQPKQYEQHLTDYEKIKEGFKNKNAAMIKSAFLPTGAFKADRYKSHGKGYNWGNYNTETQKCEIFNVKPTCLINNAAYIATTALSHPIEVENNFPCSLYKDEIMKEIERESKRIKLNDNDDEGNKKIIAPRIFISDDKDSLKCPCDPEMVSNSACRFFVCKCVERRAEVTSNNEVVVKEEYKDEYADIPEHKPT
modifications: bait human Fc-tagged dimer
B9: 69 (protein)
chain: IYYCNDNILENANNDDSTKDINNINKNSANKAKSEKTSNYNNDQYNIDDAYNEDEENDEEEGDDDENDHFEVPINCAGGNCFDSMDDINKIIDNKKKKMKYRRRRGKAIQIIKPNVNHAELIIIEENLEIFKRIDKPIAIVSVLGDMHTGKSFLLNLLNEHVIPDINKANKYIENGFKVGNDITASTYGIWIWSEPIRINVKKLKKIYEYINENFANFIKSYEYEKDEYNEEIIDLLNLYKTDDWISNVEELNLADTDEVNLILMDTQGLNSPNVNKRYDEILYALTNLISTDIIFLTMKMINNKDLEFIENIAKDANLFMLRAYTRSSGSTFSIKKNNFHKILDTLNNNLENNALILESIASKNLMWVVHDFSQRLDVRKGKLWLDILLNSDRRDLDIKYWKKIISNKAKDKHDAYTTKKQKIAYLTYNENSASGLLPNNNNNNNNANDASSNYKLNILYKNIDCVLLRNMYHNKEFDFTKANINDLNEEYKNDVLLLRYKIYLRALLFPKKMYSDVQINNIINKIRKEQKLREEQEKNKDNKKNDANNQANDLNSNKDETSGSQVTNRFMSGHDVYDFITFLVKSANQNLFTNVNQFFKHFKINRAEISRNDLIFLYKKYLLQFMENEDVEFISNLNDENDDLFLQKEGNNAAVNHDENSDADSLFNDHDENMQLKEHNIKDGEDNTHQKKDSYKLPPLLNEIKKYEELIREQILNIWYKYTESDFHDEEEKELIKDIENNLYERLDQIKIEMLELGEMNIRKFCKIACEDALQIVVEDIKMKSDQYPIKQKDLTTFFESVSYNLIKYLEKKLSKNSDKLDLIYYKDNICSPLINNAFQEFYFLKKKNIALNENRLKSYFSNAVEKGKEVFEVLAENTENIAEYFKNKNMFYTVLDKWTSEAINTYTLTLSDFAKEEKEINDEYLNVLNNDIKLLKQKAMEKWHNHCRDKTSALYNMHKSNLKKNFLENFNFPLDELVLQDIFLNLKGQEELKYMDIYCANEDSWNSEYKNFLKLTDEIFQFIKDENLKAIQITCQQPLDELKNGIKGEIHKYYLWSSLKSTLYNRALIVLSSNIENIYIKNQRENKIQSNLDEKYNNKNKNYKRISKDLMSKVINRWLNNDIYNVYYP
modifications: bait human Fc-tagged dimer
B10: 54 (protein)
chain: DQLDMGSVHNNNAVVGNSASHSPSSSSSSPSSSSSSSSSSPSASSSSSSSSPASSSSSPSSTSDDSKNAALDKIDEELQKKKKNEKL
modifications: bait human Fc-tagged dimer
B11: 62 (protein)
chain: EFKRKQKVEINSLQTNKNNDNIREEKIKGDVESQPDVDGDTCVIFSSSEGNSRNCWCPRGYILCSEEDVLDVQGKLNEIKNKHERSLVTPLWMKRLCDNSNDVGFKSMSVVIDYELAVLCKDGSNKDYADFEIIGASGYITGEEMIEEQKRNPWYVPRKCTVNNFYLCRKVENDNVNCAYTPWSDWSACKNNAQKRYRKVRRSNQNNENFCLWNDKIVPRNIMEQTRSC
modifications: bait human Fc-tagged dimer
B12: 63 (protein)
chain: FRGNNGHNSASSLYNGAQFIEQLNNAFTSAFLESQSMNKIGDDLAETISNELVSVLQKNSPTFLESSFDIKSEVKKHAKSMLKELIKVGLPSFENLVAENVKPPKVDPATYGIIVPVLTSLFNKVETAVGAKVSDEIWNYNSPDVSESEESLSDDFFD
modifications: bait human Fc-tagged dimer
B13: 48 (protein)
chain: GCIKLKTSYKHEPILLLKNDERIISLNKIIPYLTEEVFISKDNIMTKINVENNICIELIKKHEILNTPIEHFFHFTNREYTIDLRNNDNIYNYAKRILNNKLDFELCNKILSFTIPINYNICSFPSYHNYFLYINYLKDVKIELIISALEKAKFLFLKIPNTFNLNTAHANFNDNDYIIEKGILENDLIKIDISKIIHRYICKKYYLYKSDEQINDDDLRQINNNNANNDISDKEIKMVLMTSHTLSDIIIFPSIIQNVQALKHYKNIKNVVKLKKKIKKRYTEWENWAPCYNVCNNNFAYKCRYYKCTTENQEFCDQNFHMNFAECPFTPCEDAIKKENEKKEIEKDKNKAIIINHENNRDQEGPIDDETMLRYRKNKKISFFMWIINNKK
modifications: bait human Fc-tagged dimer

Biological target: FGFR4 ectodomain (Homo sapiens, UniProt P22455)
Experiment: AVEXIS normalised luminescence

| Binder | binding score |
| --- | --- |
| B1 | 1.25 |
| B2 | 0.817 |
| B3 | 0.948 |
| B4 | 0.821 |
| B5 | 198 |
| B6 | 0.876 |
| B7 | 1.58 |
| B8 | 1.43 |
| B9 | 0.719 |
| B10 | 0.958 |
| B11 | 1.47 |
| B12 | 1.23 |
| B13 | 0.752 |
